Here are results for one molecule from patent US20240076384A1.

In experiment [1] the target is soluble mouse Fc-human NKG2D dimer (human) (UniProt P26718). In words: SPR, 37 C, mFc-hNKG2D captured, TriNKET as analyte, experiment 1. Background: SPR reads the build-up and loss of mass on a sensor chip optically.
Experiment [2] has the same target. In words: SPR, 37 C, mFc-hNKG2D captured, TriNKET as analyte, experiment 2.
For experiment [3] the target is unchanged. In words: SPR, 37 C, mFc-hNKG2D captured, TriNKET as analyte, experiment 3.
For experiment [4] the target is unchanged. The experiment in a line: SPR, 37 C, average of three experiments for TriNKET A (columns shifted).
Experiment [5] has the same target. The experiment in a line: SPR, 37 C, mFc-hNKG2D captured, TriNKET as analyte, kinetic fit, experiment 1.
The target is the same in experiment [6]. The experiment in a line: SPR, 37 C, mFc-hNKG2D captured, TriNKET as analyte, kinetic fit, experiment 2.
Experiment [7] shares this target. The experiment in a line: SPR, 37 C, mFc-hNKG2D captured, TriNKET as analyte, kinetic fit, experiment 3.
For experiment [8] the target is unchanged. The experiment in a line: SPR, 37 C, mFc-hNKG2D captured, TriNKET as analyte, steady state affinity fit, experiment 1.
For experiment [9] the target is unchanged. In words: SPR, 37 C, mFc-hNKG2D captured, TriNKET as analyte, steady state affinity fit, experiment 2.
Experiment [10] has the same target. In words: SPR, 37 C, mFc-hNKG2D captured, TriNKET as analyte, steady state affinity fit, experiment 3.
For experiment [11] the target is unchanged. In words: SPR, 37 C, kinetic fit, average of three experiments for TriNKET A (cell split over r19 and r20, columns shifted).
The target is the same in experiment [12]. In words: SPR, 37 C, steady state affinity fit, average of three experiments for TriNKET A (cell split over r19 and r20, columns shifted).

Chain of soluble mouse Fc-human NKG2D dimer (human) (P26718 78-216): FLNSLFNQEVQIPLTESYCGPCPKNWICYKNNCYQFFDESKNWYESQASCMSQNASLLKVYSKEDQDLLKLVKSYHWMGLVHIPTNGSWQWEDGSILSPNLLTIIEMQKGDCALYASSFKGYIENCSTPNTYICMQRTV

B1: TriNKET A (a TriNKET containing A49) (bispecific antibody, part only; not given: Tumour antigen arm, constant regions, Fc, V domains shown, not shown: another chain or arm of the molecule; a dimerising Fc or GST)
VH: EVQLVESGGGLVKPGGSLRLSCAASGFTFSSYSMNWVRQAPGKGLEWVSSISSSSSYIYYADSVKGRFTISRDNAKNSLYLQMNSLRAEDTAVYYCARGAPMGAAAGWFDPWGQGTLVTVSS
VL: DIQMTQSPSSVSASVGDRVTITCRASQGISSWLAWYQQKPGKAPKLLIYAASSLQSGVPSRFSGSGSGTDFTLTISSLQPEDFATYYCQQGVSFPRTFGGGTKVEIK
For orientation: Kd means the equilibrium constant for the complex coming apart. The term koff denotes a measure of how fast the partners let go of each other. Usually kon stands for the rate constant with which the complex forms. With B1, the Stoichiometry in experiment [1] came to 1.01; in experiment [2] it was 0.88; in experiment [3] it was 1.12; in [4], 1.01. Moreover, the Kd in experiment [5] is 605 nM; in experiment [6] it was 523 nM; in experiment [7] it was 595 nM; in [8], 462 nM; in experiment [9], 420 nM; in [10], 580 nM. Besides, the Kd in experiment [12] came to 487 nM. For the same molecule, the koff was found to be 0.116 s⁻¹ in experiment [5], 0.106 s⁻¹ in experiment [6], 0.115 s⁻¹ in [7] and 0.112 s⁻¹ in experiment [11]. The kon amounted to 191000 M⁻¹ s⁻¹ in [5], 203000 M⁻¹ s⁻¹ in [6], 193000 M⁻¹ s⁻¹ in [7] and 196000 M⁻¹ s⁻¹ in experiment [11].
